Consider one molecule from patent US20150291689A1 (AbbVie / Abbott, published 2015).

The Kd is the constant that tells how readily two partners part at equilibrium.

Changes are numbered by the printed parent chain.

Assay [1] has as its target T1, rabbit IL-17 (Rabbit, UniProt G1SLF2 24-153).
T1 sequence: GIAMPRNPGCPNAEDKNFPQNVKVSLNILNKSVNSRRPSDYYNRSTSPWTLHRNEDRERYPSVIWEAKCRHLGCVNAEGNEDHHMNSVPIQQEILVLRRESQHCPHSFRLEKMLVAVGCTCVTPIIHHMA
As to the kind of experiment: Biacore SPR, 3 experiments. (In general: Surface plasmon resonance follows binding to a sensor surface in real time, without labels.)

Assay [2] addresses T2, human TNF-α (human, UniProt P01375 77-233). As to the kind of experiment: cell-based or functional assay.
Assay [3] addresses T3, human IL-17A homodimer (IL-17 A/A) (human, UniProt Q16552 24-155).
T3 sequence: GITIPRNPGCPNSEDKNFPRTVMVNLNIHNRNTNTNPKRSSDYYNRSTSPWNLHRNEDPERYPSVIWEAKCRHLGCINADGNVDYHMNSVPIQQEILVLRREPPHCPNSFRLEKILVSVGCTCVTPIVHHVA
The experiment in a line: cell-based or functional assay.

A further assay deals with T4, rat IL-17 (Rat, UniProt Q61453 18-150, limits assumed).
T4 sequence (looked up): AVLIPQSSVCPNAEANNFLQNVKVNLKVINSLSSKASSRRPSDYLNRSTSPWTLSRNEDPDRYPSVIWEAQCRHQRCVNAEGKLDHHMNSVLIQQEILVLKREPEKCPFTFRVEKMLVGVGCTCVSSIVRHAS
As to the kind of experiment: cell-based or functional assay.

The target in assay [4] is monkey (Rhesus/Cynomolgus) TNF (Monkey (Rhesus/Cynomolgus), UniProt P48094 77-233). As to the kind of experiment: cell-based or functional assay.
Another assay deals with T5, rat TNF (Rat, UniProt P16599 80-235).
T5 sequence (looked up): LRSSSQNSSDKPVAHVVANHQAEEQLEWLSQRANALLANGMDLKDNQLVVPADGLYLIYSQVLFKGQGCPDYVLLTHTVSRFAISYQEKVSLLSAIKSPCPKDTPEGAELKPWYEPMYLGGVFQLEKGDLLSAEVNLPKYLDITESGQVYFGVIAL
The experiment in a line: cell-based or functional assay.

The target of assay [5] is T1, rabbit IL-17. The experiment in a line: cell-based or functional assay.
In the next assay the target is T6, rabbit TNF (Rabbit, UniProt P04924 80-235, limits assumed).
T6 sequence (looked up): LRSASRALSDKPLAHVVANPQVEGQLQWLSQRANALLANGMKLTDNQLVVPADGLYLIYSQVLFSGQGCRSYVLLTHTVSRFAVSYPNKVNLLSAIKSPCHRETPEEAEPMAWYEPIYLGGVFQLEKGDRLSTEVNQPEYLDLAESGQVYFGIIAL
As to the kind of experiment: cell-based or functional assay.

The target of assay [6] is T7, monkey (Rhesus/Cynomolgus) IL-17 (Monkey (Rhesus/Cynomolgus), UniProt F6T3G5 24-155).
T7 sequence: T3 sequence with T3A, N17T, I77V, P104R
As to the kind of experiment: cell-based or functional assay.

A further assay deals with T8, mouse IL-17 (Mouse, UniProt Q62386 26-158, limits assumed).
T8 sequence (looked up): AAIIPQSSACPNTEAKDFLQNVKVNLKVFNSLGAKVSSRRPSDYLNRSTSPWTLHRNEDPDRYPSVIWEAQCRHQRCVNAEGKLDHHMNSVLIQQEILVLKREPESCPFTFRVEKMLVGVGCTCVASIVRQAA
As to the kind of experiment: cell-based or functional assay.

For the next assay, the target named is T9, mouse TNF (Mouse, UniProt P06804 80-235).
T9 sequence (looked up): T5 sequence (looked up) with A22V, I58V, S91N, I96V, M117I, L130Q, I143F, T144A
As to the kind of experiment: cell-based or functional assay.

Assay [7] concerns the target T2, human TNF-α. The experiment in a line: cell-based or functional assay. The source holds these as a separate data set.
Assay [8] has as its target T3, human IL-17A homodimer (IL-17 A/A). The experiment in a line: cell-based or functional assay. This is another data set of the same source.
The target in assay [9] is T10, human IL-17A/F heterodimer (human, UniProt Q16552 24-155; Q96PD4 31-163).
T10 sequence 1: T3 sequence
T10 sequence 2: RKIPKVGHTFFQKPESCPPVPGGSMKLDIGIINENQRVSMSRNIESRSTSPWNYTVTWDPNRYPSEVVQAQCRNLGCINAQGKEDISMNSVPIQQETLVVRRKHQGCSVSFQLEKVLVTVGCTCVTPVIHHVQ
The experiment in a line: cell-based or functional assay.

T2 sequence (P01375 77-233 limits assumed): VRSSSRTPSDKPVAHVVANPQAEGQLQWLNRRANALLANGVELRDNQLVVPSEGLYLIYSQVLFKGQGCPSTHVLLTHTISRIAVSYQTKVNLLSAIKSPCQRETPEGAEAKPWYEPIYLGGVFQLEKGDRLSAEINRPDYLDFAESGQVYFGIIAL
Sequence of monkey (Rhesus/Cynomolgus) TNF (P48094 77-233 limits assumed): as the sequence (P01375 77-233 limits assumed) above, with R44T, T72N, R138L counted along it

B1: ABBV-257 (HMAK199-1-GS10-H10F7-M11 DVD-Ig binding protein) (bispecific antibody)
heavy: EVQLVQSGAEVKKPGASVKVSCKASGYTFANYGIIWVRQAPGQGLEWMGWINTYTGKPTYAQKFQGRVTMTTDTSTSTAYMELSSLRSEDTAVYYCARKLFTTMDVTDNAMDYWGQGTTVTVSSGGGGSGGGGSEVQLVQSGAEVKKPGSSVKVSCKASGYTFTDYEIHWVRQAPGQGLEWMGVNDPESGGTFYNQKFDGRVTLTADESTSTAYMELSSLRSEDTAVYYCTRYSKWDSFDGMDYWGQGTTVTVSSASTKGPSVFPLAPSSKSTSGGTAALGCLVKDYFPEPVTVSWNSGALTSGVHTFPAVLQSSGLYSLSSVVTVPSSSLGTQTYICNVNHKPSNTKVDKKVEPKSCDKTHTCPPCPAPEAAGGPSVFLFPPKPKDQLMISRTPEVTCVVVDVSHEDPEVKFNWYVDGVEVHNAKTKPREEQYNSTYRVVSVLTVLHQDWLNGKEYKCKVSNKALPAPIEKTISKAKGQPREPQVYTLPPSREEMTKNQVSLTCLVKGFYPSDIAVEWESNGQPENNYKTTPPVLDSDGSFFLYSKLTVDKSRWQQGNVFSCSVLHEALHNHYTQKSLSLSPGK
light: DIQMTQSPSSLSASVGDRVTITCRASQDISQYLNWYQQKPGKAPKLLIYYTSRLQSGVPSRFSGSGSGTDFTLTISSLQPEDFATYFCQQGNTWPPTFGQGTKLEIKRGGSGGGGSGDIQMTQSPSSLSASVGDRVTITCRASSGIISYIDWFQQKPGKAPKRLIYATFDLASGVPSRFSGSGSGTDYTLTISSLQPEDFATYYCRQVGSYPETFGQGTKLEIKRTVAAPSVFIFPPSDEQLKSGTASVVCLLNNFYPREAKVQWKVDNALQSGNSQESVTEQDSKDSTYSLSSTLTLSKADYEKHKVYACEVTHQGLSSPVTKSFNRGEC
modifications: N-linked glycans on the heavy chain (position not given)
Take B1: the affinity in the assay with rabbit IL-17 [1], expressed as Kd, was 3.3 nM. Also, the “IC50, in vitro neutralization assay” value with human TNF-α [2] was 0.025 nM; in assay [3], 0.026 nM; with rat IL-17 it was 0.135 nM; in assay [4] it was 0.025 nM; with rat TNF, more than 1000 nM; with rabbit IL-17 [5] it was 11.4 nM. Moreover, the “IC50, in vitro neutralization assay” value is more than 1000 nM with rabbit TNF, 0.032 nM in assay [6], 0.239 nM in the assay with mouse IL-17 and more than 1000 nM with mouse TNF. Moreover, the “Mean IC50, TNF-induced lethality of L929 cells” value with human TNF-α [7] was 0.025 nM. In addition, the “Mean IC50, IL-17 dependent induction of IL-6 in fibroblasts” value in assay [8] came out at 0.026 nM; in [9] it was 0.11 nM.
